Assay [1] has as its target Streptomyces sp. AA4 hemerythrin cargo with C-terminal His6 tag (Streptomyces sp. AA4). As to the kind of experiment: SEC.
The target of assay [2] is Streptomyces sp. AA4 encapsulin capsid protein (Streptomyces sp. AA4). The experiment in a line: co-purification with encapsulin capsids.
Assay [3] concerns the target Kuenenia stuttgartiensis encapsulin without the N-terminal cytochrome domain (Kuenenia stuttgartiensis) (UniProt Q1Q6L7). The experiment in a line: co-purification with encapsulin capsids.
Assay [4] addresses Bacillaceae bacterium MTCC 10057 encapsulin capsid protein (Bacillaceae bacterium MTCC 10057). The experiment in a line: co-purification with encapsulin capsids.
The target of assay [5] is Bacillaceae bacterium MTCC 10057 Geobac cargo protein with C-terminal His6 tag (Bacillaceae bacterium MTCC 10057). As to the kind of experiment: SEC.

“Streptomyces sp. AA4 hemerythrin cargo with C-terminal His6 tag (natural protein)” gave a stoichiometry N in assay [1] of 2.
Regarding “Streptomyces sp. AA4 hemerythrin cargo (Heme), with C-terminal targeting peptide (natural protein)”, the molecules of cargo per 60 subunit capsid (molecules per 60 subunit capsid) in assay [2] turned out to be 20.
Substance “NIR domain (N-terminal cupredoxin domain) of the Kuenenia stuttgartiensis NIR-HAO fusion protein (domain or fragment)” registered a copies of cargo per 180mer capsid (copies per 180mer capsid) in assay [3] of 15.
“Bacillaceae bacterium MTCC 10057 Geobac cargo protein, with C-terminal targeting peptide (natural protein)” displayed a molecules of cargo per 180 subunit capsid (molecules per 180 subunit capsid) in assay [4] of 150.
On the same count and under the same terms, to “Bacillaceae bacterium MTCC 10057 Ferredoxin cargo (Fer), with N-terminal targeting peptide (natural protein)” belongs 10.
In turn, “Bacillaceae bacterium MTCC 10057 Geobac cargo protein with C-terminal His6 tag (natural protein)” had a stoichiometry N in assay [5] of 2.

One may read the stoichiometry N as the number of molecules, sites or subunits per partner or assembly.

The values above are taken from paper doi:10.1101/085266.
